Measured values taken from IntAct's records for PubMed 31515488.

B1: E3 ubiquitin-protein ligase CCNB1IP1 (Homo sapiens), Q9NPC3 (parent)
chain: MSLCEDMLLCNYRKCRIKLSGYAWVTACSHIFCDQHGSGEFSRSPAICPACNSTLSGKLDIVRTELSPSEEYKAMVLAGLRPEIVLDISSRALAFWTYQVHQERLYQEYNFSKAEGHLKQMEKIYTQQIQSKDVELTSMKGEVTSMKKVLEEYKKKFSDISEKLMERNRQYQKLQGLYDSLRLRNITIANHEGTLEPSMIAQSGVLGFPLGNNSKFPLDNTPVRNRGDGDGDFQFRPFFAGSPTAPEPSNSFFSFVSPSRELEQQQVSSRAFKVKRI
B2: Homeobox protein PKNOX1 (Homo sapiens), P55347 (parent)
chain: MMATQTLSIDSYQDGQQMQVVTELKTEQDPNCSEPDAEGVSPPPVESQTPMDVDKQAIYRHPLFPLLALLFEKCEQSTQGSEGTTSASFDVDIENFVRKQEKEGKPFFCEDPETDNLMVKAIQVLRIHLLELEKVNELCKDFCSRYIACLKTKMNSETLLSGEPGSPYSPVQSQQIQSAITGTISPQGIVVPASALQQGNVAMATVAGGTVYQPVTVVTPQGQVVTQTLSPGTIRIQNSQLQLQLNQDLSILHQDDGSSKNKRGVLPKHATNVMRSWLFQHIGHPYPTEDEKKQIAAQTNLTLLQVNNWFINARRRILQPMLDSSCSETPKTKKKTAQNRPVQRFWPDSIASGVAQPPPSELTMSEGAVVTITTPVNMNVDSLQSLSSDGATLAVQQVMMAGQSEDESVDSTEEDAGALAPAHISGLVLENSDSLQ
B3: TBC1 domain family member 7 (Homo sapiens), Q9P0N9 (parent)
chain: MTEDSQRNFRSVYYEKVGFRGVEEKKSLEILLKDDRLDTEKLCTFSQRFPLPSMYRALVWKVLLGILPPHHESHAKVMMYRKEQYLDVLHALKVVRFVSDATPQAEVYLRMYQLESGKLPRSPSFPLEPDDEVFLAIAKAMEEMVEDSVDCYWITRRFVNQLNTKYRDSLPQLPKAFEQYLNLEDGRLLTHLRMCSAAPKLPYDLWFKRCFAGCLPESSLQRVWDKVVSGSCKILVFVAVEILLTFKIKVMALNSAEKITKFLENIPQDSSDAIVSKAIDLWHKHCGTPVHSS

Variants of: B1
Conditions: with aapk2_human PRKAA2, P54646
aapk2_human PRKAA2, P54646, sequence (P54646 whole entry, looked up): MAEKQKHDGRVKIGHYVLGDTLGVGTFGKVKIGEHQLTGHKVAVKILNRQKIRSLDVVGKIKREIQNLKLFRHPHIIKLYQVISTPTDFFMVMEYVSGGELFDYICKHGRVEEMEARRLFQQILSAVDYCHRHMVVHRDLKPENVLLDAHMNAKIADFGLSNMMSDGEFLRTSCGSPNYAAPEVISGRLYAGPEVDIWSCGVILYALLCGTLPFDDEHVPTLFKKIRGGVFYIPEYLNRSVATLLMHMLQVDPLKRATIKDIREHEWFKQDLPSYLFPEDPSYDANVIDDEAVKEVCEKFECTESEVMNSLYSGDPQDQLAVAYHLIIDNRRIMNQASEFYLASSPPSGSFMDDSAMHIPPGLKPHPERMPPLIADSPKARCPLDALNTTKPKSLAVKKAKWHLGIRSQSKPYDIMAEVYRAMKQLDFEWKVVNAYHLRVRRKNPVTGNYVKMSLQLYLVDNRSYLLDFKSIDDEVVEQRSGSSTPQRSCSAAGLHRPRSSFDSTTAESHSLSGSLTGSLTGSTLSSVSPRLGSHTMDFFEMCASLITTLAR

effect of a mutation on the interaction	Variant
with no effect	MSLCEDMLLCNYRKCRIKLSGYAWVTACSHIFCDQHGSGEFSRSPAICPACNSTLSGKLDIVRTELSPSEEYKAMVLAGLRPEIVLDISSRALAFWTYQVHQERLHQEYNFSKAEGHLKQMEKIYTQQIQSKDVELTSMKGEVTSMKKVLEEYKKKFSDISEKLMERNRQYQKLQGLYDSLRLRNITIANHEGTLEPSMIAQSGVLGFPLGNNSKFPLDNTPVRNRGDGDGDFQFRPFFAGSPTAPEPSNSFFSFVSPSRELEQQQVSSRAFKVKRI [Y106H]
with no effect	MSLCEDMLLCNYRKCRIKLSGYAWVTACSHIFCDQHGSGEFSRSPAICPACNSTLSGKLDIVRTELSPSEEYKAMVLAGLRPEIVLDISSRALAFWTYQVHQERLYQEYNFSKAEGHLKQMEKIYTQQIQSKDVELTSMKGEVTSMKKVLEEYKKKFSDISEKLMERNRQYQKLQGLYDSLRLRNIAIANHEGTLEPSMIAQSGVLGFPLGNNSKFPLDNTPVRNRGDGDGDFQFRPFFAGSPTAPEPSNSFFSFVSPSRELEQQQVSSRAFKVKRI [T187A]

Variants of: B1
Conditions: with KRT15, P19012
KRT15, P19012, sequence (P19012 whole entry): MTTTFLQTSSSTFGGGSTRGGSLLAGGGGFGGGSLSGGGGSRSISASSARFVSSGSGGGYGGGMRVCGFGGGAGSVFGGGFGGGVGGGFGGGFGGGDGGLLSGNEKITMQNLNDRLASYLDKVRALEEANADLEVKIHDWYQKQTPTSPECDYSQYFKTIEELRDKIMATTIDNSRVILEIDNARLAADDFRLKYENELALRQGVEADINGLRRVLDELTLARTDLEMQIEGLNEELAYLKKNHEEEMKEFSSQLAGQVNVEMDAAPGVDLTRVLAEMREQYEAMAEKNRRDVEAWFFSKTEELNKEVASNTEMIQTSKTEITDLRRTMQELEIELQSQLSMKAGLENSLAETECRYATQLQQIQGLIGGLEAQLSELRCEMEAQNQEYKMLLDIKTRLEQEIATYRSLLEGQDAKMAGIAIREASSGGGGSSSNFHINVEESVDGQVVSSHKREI

effect of a mutation on the interaction	Variant
disrupting interaction strength	MSLCEDMLLCNYRKCRIKLSGYAWVTACSHIFCDQHGSGEFSRSPAICPACNSTLSGKLDIVRTELSPSEEYKAMVLAGLRPEIVLDISSRALAFWTYQVHQERLHQEYNFSKAEGHLKQMEKIYTQQIQSKDVELTSMKGEVTSMKKVLEEYKKKFSDISEKLMERNRQYQKLQGLYDSLRLRNITIANHEGTLEPSMIAQSGVLGFPLGNNSKFPLDNTPVRNRGDGDGDFQFRPFFAGSPTAPEPSNSFFSFVSPSRELEQQQVSSRAFKVKRI [Y106H]
with no effect	MSLCEDMLLCNYRKCRIKLSGYAWVTACSHIFCDQHGSGEFSRSPAICPACNSTLSGKLDIVRTELSPSEEYKAMVLAGLRPEIVLDISSRALAFWTYQVHQERLYQEYNFSKAEGHLKQMEKIYTQQIQSKDVELTSMKGEVTSMKKVLEEYKKKFSDISEKLMERNRQYQKLQGLYDSLRLRNIAIANHEGTLEPSMIAQSGVLGFPLGNNSKFPLDNTPVRNRGDGDGDFQFRPFFAGSPTAPEPSNSFFSFVSPSRELEQQQVSSRAFKVKRI [T187A]

Variants of: B1
Conditions: with keap1_human KEAP1, Q14145
keap1_human KEAP1, Q14145, sequence (Q14145 whole entry): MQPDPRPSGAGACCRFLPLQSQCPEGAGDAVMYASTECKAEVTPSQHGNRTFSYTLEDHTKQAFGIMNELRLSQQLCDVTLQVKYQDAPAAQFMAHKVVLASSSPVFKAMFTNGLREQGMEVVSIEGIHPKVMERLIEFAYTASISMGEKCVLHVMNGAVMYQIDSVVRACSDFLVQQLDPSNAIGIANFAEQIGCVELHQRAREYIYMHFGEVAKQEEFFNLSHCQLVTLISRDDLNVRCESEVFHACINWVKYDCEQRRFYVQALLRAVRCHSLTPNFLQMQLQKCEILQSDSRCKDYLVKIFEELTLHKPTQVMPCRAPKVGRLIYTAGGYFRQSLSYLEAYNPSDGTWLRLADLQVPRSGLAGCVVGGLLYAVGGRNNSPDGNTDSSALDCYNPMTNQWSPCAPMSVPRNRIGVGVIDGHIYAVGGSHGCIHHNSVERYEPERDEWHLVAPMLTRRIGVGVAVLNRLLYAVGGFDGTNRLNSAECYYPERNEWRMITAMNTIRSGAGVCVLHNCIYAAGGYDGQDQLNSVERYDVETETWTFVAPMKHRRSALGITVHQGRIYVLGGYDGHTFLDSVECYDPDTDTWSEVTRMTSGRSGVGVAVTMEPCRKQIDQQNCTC

effect of a mutation on the interaction	Variant
with no effect	MSLCEDMLLCNYRKCRIKLSGYAWVTACSHIFCDQHGSGEFSRSPAICPACNSTLSGKLDIVRTELSPSEEYKAMVLAGLRPEIVLDISSRALAFWTYQVHQERLHQEYNFSKAEGHLKQMEKIYTQQIQSKDVELTSMKGEVTSMKKVLEEYKKKFSDISEKLMERNRQYQKLQGLYDSLRLRNITIANHEGTLEPSMIAQSGVLGFPLGNNSKFPLDNTPVRNRGDGDGDFQFRPFFAGSPTAPEPSNSFFSFVSPSRELEQQQVSSRAFKVKRI [Y106H]
with no effect	MSLCEDMLLCNYRKCRIKLSGYAWVTACSHIFCDQHGSGEFSRSPAICPACNSTLSGKLDIVRTELSPSEEYKAMVLAGLRPEIVLDISSRALAFWTYQVHQERLYQEYNFSKAEGHLKQMEKIYTQQIQSKDVELTSMKGEVTSMKKVLEEYKKKFSDISEKLMERNRQYQKLQGLYDSLRLRNIAIANHEGTLEPSMIAQSGVLGFPLGNNSKFPLDNTPVRNRGDGDGDFQFRPFFAGSPTAPEPSNSFFSFVSPSRELEQQQVSSRAFKVKRI [T187A]

Variants of: B2
Conditions: with vp37c_human VPS37C

effect of a mutation on the interaction	Variant
with no effect	MMATQTLSIDSYQDGQQMQVVTELKTEQDPNCSEPDAEGVSPPPVESQTPMDVDKQAIYRHPLFPLLALLFEKCEQSTQGSEGTTSASFDVDIENFVRKQEKDGKPFFCEDPETDNLMVKAIQVLRIHLLELEKVNELCKDFCSRYIACLKTKMNSETLLSGEPGSPYSPVQSQQIQSAITGTISPQGIVVPASALQQGNVAMATVAGGTVYQPVTVVTPQGQVVTQTLSPGTIRIQNSQLQLQLNQDLSILHQDDGSSKNKRGVLPKHATNVMRSWLFQHIGHPYPTEDEKKQIAAQTNLTLLQVNNWFINARRRILQPMLDSSCSETPKTKKKTAQNRPVQRFWPDSIASGVAQPPPSELTMSEGAVVTITTPVNMNVDSLQSLSSDGATLAVQQVMMAGQSEDESVDSTEEDAGALAPAHISGLVLENSDSLQ [E103D]
with no effect	MMATQTLSIDSYQDGQQMQVVTELKTEQDPNCSEPDAEGVSPPPVESQTPMDVDKQAIYRHPLFPLLALLFEKCEQSTQGSEGTTSASFDVDIENFVRKQEKEGKPFFCEDPETDNLMVKAIQVLRIHLLELEKVNELCKDFCSRYIACLKTKMNSETLLSGEPGSPYSPVQSQQIQSAITGTISPQGIVVPASALQQGNVAMATVAGGTVYQPVTVVTPQGQVVTQTLSPGTIRIQNSQLQLQLNQDLSILHQDDGSSKNKRGILPKHATNVMRSWLFQHIGHPYPTEDEKKQIAAQTNLTLLQVNNWFINARRRILQPMLDSSCSETPKTKKKTAQNRPVQRFWPDSIASGVAQPPPSELTMSEGAVVTITTPVNMNVDSLQSLSSDGATLAVQQVMMAGQSEDESVDSTEEDAGALAPAHISGLVLENSDSLQ [V265I]

Variants of: B2
Conditions: with vp37c_human VPS37C
Remark: another data set of the same source

effect of a mutation on the interaction	Variant
with no effect	MMATQTLSIDSYQDGQQMQVVTELKTEQDPNCSEPDAEGVSPPPVESQTPMDVDKQAIYRHPLFPLLALLFEKCEQSTQGSEGTTSASFDVDIENFVRKQEKEGKPFFCEDPETDNLMVKAIQVLRIHLLELEKVNELCKDFCSRYIACLKTKMNSETLLSGEPGSPYSPVQSQQIQSAITGTISPQGIVVPASALQQGNVAMATVAGGTVYQPVTVVTPQGQVVTQTLSPGTIRIQNSQLQLQLNQDLSILHQDDGSSKNKRGILPKHATNVMRSWLFQHIGHPYPTEDEKKQIAAQTNLTLLQVNNWFINARRRILQPMLDSSCSETPKTKKKTAQNRPVQRFWPDSIASGVAQPPPSELTMSEGAVVTITTPVNMNVDSLQSLSSDGATLAVQQVMMAGQSEDESVDSTEEDAGALAPAHISGLVLENSDSLQ [V265I]

Variants of: B3
Conditions: with hook1_human HOOK1, Q9UJC3
hook1_human HOOK1, Q9UJC3, sequence (Q9UJC3 whole entry): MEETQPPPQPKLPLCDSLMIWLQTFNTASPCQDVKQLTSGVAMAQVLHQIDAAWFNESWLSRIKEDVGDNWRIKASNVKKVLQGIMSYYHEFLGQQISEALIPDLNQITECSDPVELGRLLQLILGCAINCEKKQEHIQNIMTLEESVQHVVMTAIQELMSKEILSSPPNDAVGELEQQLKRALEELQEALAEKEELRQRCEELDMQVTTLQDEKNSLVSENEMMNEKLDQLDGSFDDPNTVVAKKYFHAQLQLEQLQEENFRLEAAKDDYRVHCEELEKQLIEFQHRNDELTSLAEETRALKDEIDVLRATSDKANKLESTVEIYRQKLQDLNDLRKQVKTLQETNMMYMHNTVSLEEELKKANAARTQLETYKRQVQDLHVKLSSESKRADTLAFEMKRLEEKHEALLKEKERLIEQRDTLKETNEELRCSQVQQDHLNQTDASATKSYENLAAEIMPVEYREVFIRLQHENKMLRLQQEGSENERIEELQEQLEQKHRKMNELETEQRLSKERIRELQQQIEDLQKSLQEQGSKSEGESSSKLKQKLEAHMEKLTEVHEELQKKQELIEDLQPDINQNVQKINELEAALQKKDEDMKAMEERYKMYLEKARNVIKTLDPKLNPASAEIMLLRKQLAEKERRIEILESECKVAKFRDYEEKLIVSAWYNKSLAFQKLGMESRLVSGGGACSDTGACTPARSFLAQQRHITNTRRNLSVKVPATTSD

effect of a mutation on the interaction	Variant
disrupting interaction strength	MTEDSQRNFRSVYYEKVGFRGVEEKKSLEILLKDDRLDTEKLCTFSQRFPLPSMYRALVWKVLLGIWPPHHESHAKVMMYRKEQYLDVLHALKVVRFVSDATPQAEVYLRMYQLESGKLPRSPSFPLEPDDEVFLAIAKAMEEMVEDSVDCYWITRRFVNQLNTKYRDSLPQLPKAFEQYLNLEDGRLLTHLRMCSAAPKLPYDLWFKRCFAGCLPESSLQRVWDKVVSGSCKILVFVAVEILLTFKIKVMALNSAEKITKFLENIPQDSSDAIVSKAIDLWHKHCGTPVHSS [L67W]

Variants of: B3
Conditions: with KRT19, P08727
KRT19, P08727, sequence (P08727 whole entry): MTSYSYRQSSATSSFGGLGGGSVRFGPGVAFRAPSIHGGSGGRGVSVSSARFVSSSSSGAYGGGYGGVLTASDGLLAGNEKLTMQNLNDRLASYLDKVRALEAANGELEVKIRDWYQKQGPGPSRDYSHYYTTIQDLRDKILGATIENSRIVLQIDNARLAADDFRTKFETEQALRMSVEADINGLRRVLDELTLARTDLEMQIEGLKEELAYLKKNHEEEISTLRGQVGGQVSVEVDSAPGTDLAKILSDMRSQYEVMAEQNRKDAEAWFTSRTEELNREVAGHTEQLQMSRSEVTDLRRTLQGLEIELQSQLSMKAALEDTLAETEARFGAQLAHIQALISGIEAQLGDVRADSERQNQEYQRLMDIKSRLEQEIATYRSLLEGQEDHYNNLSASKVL

effect of a mutation on the interaction	Variant
disrupting interaction strength	MTEDSQRNFRSVYYEKVGFRGVEEKKSLEILLKDDRLDTEKLCTFSQRFPLPSMYRALVWKVLLGIWPPHHESHAKVMMYRKEQYLDVLHALKVVRFVSDATPQAEVYLRMYQLESGKLPRSPSFPLEPDDEVFLAIAKAMEEMVEDSVDCYWITRRFVNQLNTKYRDSLPQLPKAFEQYLNLEDGRLLTHLRMCSAAPKLPYDLWFKRCFAGCLPESSLQRVWDKVVSGSCKILVFVAVEILLTFKIKVMALNSAEKITKFLENIPQDSSDAIVSKAIDLWHKHCGTPVHSS [L67W]
